Molecular target: T1, His-DUB3 (deubiquitinating enzyme 3) (UniProt Q6R6M4 1-530)
T1 construct: deubiquitinating enzyme 3 (DUB3); also called purified recombinant His-DUB3; source: purified recombinant (cloned into PET28A)
T1 sequence (looked up): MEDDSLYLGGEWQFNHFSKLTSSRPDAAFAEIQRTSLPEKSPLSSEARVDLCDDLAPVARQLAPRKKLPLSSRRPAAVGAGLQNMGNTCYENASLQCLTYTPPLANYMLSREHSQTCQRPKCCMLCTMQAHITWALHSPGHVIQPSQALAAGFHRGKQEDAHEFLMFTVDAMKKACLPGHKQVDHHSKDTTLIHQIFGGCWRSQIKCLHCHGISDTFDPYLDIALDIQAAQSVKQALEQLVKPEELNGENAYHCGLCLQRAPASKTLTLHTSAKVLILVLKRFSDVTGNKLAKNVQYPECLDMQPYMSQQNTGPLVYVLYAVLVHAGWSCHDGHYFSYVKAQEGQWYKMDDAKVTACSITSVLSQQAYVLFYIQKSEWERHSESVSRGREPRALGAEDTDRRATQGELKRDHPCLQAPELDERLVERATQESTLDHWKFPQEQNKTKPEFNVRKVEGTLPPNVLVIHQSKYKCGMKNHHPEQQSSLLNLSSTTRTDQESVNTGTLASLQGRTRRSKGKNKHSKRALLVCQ
Experiment: pull-down; purified recombinant GST or GST fusion protein incubated in vitro (cell-free) with purified recombinant His-tagged protein; blot and Coomassie blue staining
Conditions: both partners purified

B1: GST-CDK4 (cyclin-dependent kinase 4) (enzyme, UniProt P11802 1-303, looked up)
chain: MATSRYEPVAEIGVGAYGTVYKARDPHSGHFVALKSVRVPNGGGGGGGLPISTVREVALLRRLEAFEHPNVVRLMDVCATSRTDREIKVTLVFEHVDQDLRTYLDKAPPPGLPAETIKDLMRQFLRGLDFLHANCIVHRDLKPENILVTSGGTVKLADFGLARIYSYQMALTPVVVTLWYRAPEVLLQSTYATPVDMWSVGCIFAEMFRRKPLFCGNSEADQLGKIFDLIGLPPEDDWPRDVSLPRGAFPPRGPRPVQSVVPEMEESGAQLLLEMLTFNPHKRISAFRALQHSYLHKDEGNPE
notes: cyclin-dependent kinase 4 (CDK4); CDK4 and CDK6 were cloned as separate genes, so they are written as two molecules; No cyclin is mentioned; also called GST-CDK4/6; source: purified recombinant (cloned into pGEX4T-1)
binding result: binds

Source: PMC11832431 (MedComm, 2025)
